The results in this text go back to US20120213761.

The data set has as its target T1, tumor necrosis factor receptor-associated factor 2 (TRAF2), endogenous, in human cardiac tissue, Q12933.
T1 chain: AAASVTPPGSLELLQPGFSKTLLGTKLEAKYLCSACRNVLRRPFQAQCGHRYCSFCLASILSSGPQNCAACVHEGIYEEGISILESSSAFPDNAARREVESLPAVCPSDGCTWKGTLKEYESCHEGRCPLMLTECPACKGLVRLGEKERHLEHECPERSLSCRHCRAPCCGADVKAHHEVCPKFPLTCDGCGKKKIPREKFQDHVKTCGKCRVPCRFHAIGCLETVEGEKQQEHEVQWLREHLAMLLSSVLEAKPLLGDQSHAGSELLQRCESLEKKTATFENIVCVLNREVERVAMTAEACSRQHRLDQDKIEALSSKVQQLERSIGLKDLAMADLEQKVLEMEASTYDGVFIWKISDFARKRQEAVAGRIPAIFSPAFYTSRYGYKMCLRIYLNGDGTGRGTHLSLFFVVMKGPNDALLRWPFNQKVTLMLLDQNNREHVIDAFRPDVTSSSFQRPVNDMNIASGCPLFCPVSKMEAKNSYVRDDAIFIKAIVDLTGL

B1: recombinant GSTP1 (Assay Design, Ann Arbor, Mich.) (protein)
chain: PPYTVVYFPVRGRCAALRMLLADQGQSWKEEVVTVETWQEGSLKASCLYGQLPKFQDGDLTLYQSNTILRHLGRTLGLYGKDQQEAALVDMVNDGVEDLRCKYISLIYTNYEAGKDDYVKALPGQLKPFETLLSQNQGGKTFIVGDQISFADYNLLDLLLIHEVLAPGCLDAFPLLSAYVGRLSARPKLKAFLASPEYVNLPINGNGKQ
Regarding B1, the “JNK1 and p38 activation (active JNK / active p38 protein, Western blot) in cardiac tissue cultures” value is “acts as a negative regulator of JNK1 and p38 activation”; the “TNF-α-induced JNK and p38 activation in DCM cardiac tissue cultures (Western blot)” value is “higher GSTP1 concentrations inhibit TNF-α-induced JNK and p38 activation in DCM”.
